Laboratory results taken from patent publication US8067155B2, “Receptor tyrosine kinase assays” (DiscoveRx Corporation, priority 2008, dated 2011).

Key:
[1] = target: TrkB fused to a low affinity small fragment of β-galactosidase (TrkB-PK) (UniProt Q16620); assay: cell-based or functional assay
[2] = target: T1, insulin receptor (INSR) (Homo sapiens, UniProt P06213); assay: PathHunter INSR-PK / SH2-containing protein-EA assay in U2OS cells, agonist mode; format: cell-based; details: U2OS INSR-PK cells, 10,000 cells/well, 3 hours at room temperature
T1 construct: host or cells: U2OS

[3] = target: TrkC fused to a low affinity small fragment of β-galactosidase (TrkC-PK) (UniProt Q16288); assay: cell-based or functional assay
[4] = target: T2, TrkC (Homo sapiens, UniProt Q16288); assay: PathHunter TrkC-PK / SH2-containing protein-EA assay in U2OS cells, agonist mode; format: cell-based; details: 3 hours at room temperature
T2 construct: host or cells: U2OS
Experimental: FIG. 8 is a graph of the dose response in U2OS cells of TrkC fused to a low affinity small fragment of β-galactosidase (TrkC-PK). Cells were plated in a 384-well plate at 10,000 cells/well, stimulated with NT3 (Peprotech, Cat #/450-03), a known ligand for TrkC, for 3 hours at room temperature according to the assay procedure provided. Following stimulation, detection reagents were added and signal was detected after 1 hour using the PathHunter® Detection Kit (93-0001).
(§1) Generally, the expression constructs for the fusion proteins includes at least (in order of 5′ to 3′) a promoter, followed by the receptor or SH2 domain, followed by a linker, followed by either the EA or PK. […] SH2-EA complex formation with the RTK was detected with 50% (v/v) of PathHunter® Detection Reagent (Dx 93-0001, PathHunter reagents are available from DiscoveRx, Corp., Fremont, Calif.) (Lysis buffer active ingredient 1% CHAPS, Emerald II™ and Galacton Star™ are from Applied Biosystems).
(§2) 10K cells/well TrkC-PK SH2-containing protein-EA double stable cells were plated in a 384-well plate, stimulated with NT3 (Peprotech, Cat #/450-03), a known ligand for TrkC for 3 hours at room temperature according to the assay procedure provided. Following stimulation, detection reagents were added and signal was detected after 1 hour using the PathHunter® Detection Kit (93-0001).

[5] = target: T3, TrkB (Homo sapiens, UniProt Q16620); assay: PathHunter TrkB-PK / SH2-containing protein-EA assay in U2OS cells, agonist mode; format: cell-based; details: 3 hours at room temperature
T3 construct: host or cells: U2OS
Experimental: FIG. 7 is a graph of the dose response in U2OS cells of TrkB fused to a low affinity small fragment of β-galactosidase (TrkB-PK). Cells were plated in a 384-well plate at 10,000 cells/well stimulated with BDNF (Peprotech, Cat #/450-02), a known ligand for TrkB, for 3 hours at room temperature according to the assay procedure provided. Following stimulation, detection reagents were added and signal was detected after 1 hour using the PathHunter® Detection Kit (93-0001).
as §1
as §2, with “cells/well TrkB-PK” for “cells/well TrkC-PK”, “stable cell” for “stable cells”, “with BDNF” for “with NT3”, “Cat #/450-02),” for “Cat #/450-03),”, “for TrkB” for “for TrkC”

[6] = target: G-CSFR (granulocyte-colony stimulating factor receptor) fused to a low affinity small fragment of … (UniProt Q99062 25-836, tyrosine-phosphorylated on activation (by Jak2); sites not stated); assay: cell-based or functional assay
Sequence of G-CSFR (granulocyte-colony stimulating factor receptor) fused to a low affinity small fragment of … (Q99062 other isoform, or with tags, fused parts or gaps): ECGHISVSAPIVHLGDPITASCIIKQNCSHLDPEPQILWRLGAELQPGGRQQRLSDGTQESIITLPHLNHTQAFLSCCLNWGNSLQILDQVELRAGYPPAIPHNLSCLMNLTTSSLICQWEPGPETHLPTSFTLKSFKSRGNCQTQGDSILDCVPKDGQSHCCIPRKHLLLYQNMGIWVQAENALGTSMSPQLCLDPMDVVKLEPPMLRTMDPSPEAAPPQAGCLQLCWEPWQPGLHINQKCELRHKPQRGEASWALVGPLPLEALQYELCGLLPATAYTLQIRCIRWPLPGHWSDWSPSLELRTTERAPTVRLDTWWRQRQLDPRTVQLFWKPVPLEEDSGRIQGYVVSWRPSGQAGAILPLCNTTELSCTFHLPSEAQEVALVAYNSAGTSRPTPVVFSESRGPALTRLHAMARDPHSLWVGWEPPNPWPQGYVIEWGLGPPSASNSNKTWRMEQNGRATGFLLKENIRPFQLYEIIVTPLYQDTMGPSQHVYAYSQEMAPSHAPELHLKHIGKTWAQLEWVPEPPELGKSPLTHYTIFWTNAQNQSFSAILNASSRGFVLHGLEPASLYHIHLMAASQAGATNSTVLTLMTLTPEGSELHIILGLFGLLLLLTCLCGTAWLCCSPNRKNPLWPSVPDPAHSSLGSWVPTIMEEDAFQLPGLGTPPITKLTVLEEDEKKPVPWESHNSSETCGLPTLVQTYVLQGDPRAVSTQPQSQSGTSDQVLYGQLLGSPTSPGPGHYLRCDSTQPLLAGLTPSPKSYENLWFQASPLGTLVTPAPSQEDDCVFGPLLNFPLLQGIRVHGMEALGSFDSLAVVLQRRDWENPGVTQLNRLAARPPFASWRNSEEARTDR

BDNF (Peprotech, Cat #/450-02) (from UniProt P23560 129-247) (ligand)
EC50 of the BDNF dose response (PathHunter β-galactosidase complementation of TrkB-PK and SH2-containing protein-EA in U2OS cells) [1]: 4.21 ng/mL | assay window of the BDNF dose response (PathHunter β-galactosidase complementation of TrkB-PK and SH2-containing protein-EA in U2OS cells) [1]: 4 fold

IGF1: IGF1 (Peprotech, Cat AF-100-11), a known ligand for IGF1R
EC50 [2]: 2.0 ng/mL

NT3 (Peprotech, Cat #/450-03) (from UniProt P20783 139-257) (ligand)
EC50 of the NT3 dose response (PathHunter β-galactosidase complementation of TrkC-PK and SH2-containing protein-EA in U2OS cells) [3]: 7 ng/mL | assay window of the NT3 dose response (PathHunter β-galactosidase complementation of TrkC-PK and SH2-containing protein-EA in U2OS cells) [3]: 8.1 fold

NT3: NT3 (Peprotech, Cat 450-03), a known ligand for TrkC
EC50 ([4]; U2OS TrkC-PK cells, 10,000 cells/well): 7 ng/mL | assay window ([4]; U2OS TrkC-PK cells): 8.1 fold

B1: BDNF: BDNF (Peprotech, Cat 450-02), a known ligand for TrkB (protein, UniProt P23560 19-247, looked up)
Neurotrophic factor BDNF …: APMKEANIRGQGGLAYPGVRTHGTLESVNGPKAGSRGLTSLADTFEHVIEELLDEDQKVRPNEENNKDADLYTSRVMLSSQVPLEPPLLFLLEEYKNYLDAANMSMRVRRHSDPARRGELSVCDSISEWVTAADKKTAVDMSGGTVTVLEKVPVSKGQLKQYFYETKCNPMGYTKEGCRGIDKRHWNSQCRTTQSYVRALTMDSKKRIGWRFIRIDTSCVCTLTIKRGR
EC50 ([5]; U2OS TrkB-PK cells, 10,000 cells/well): 4.21 ng/mL | assay window ([5]; U2OS TrkB-PK cells): 4.0 fold

B2: G-CSF (Peprotech 300-23) (ligand, UniProt P09919-2 31-204, looked up)
chain: TPLGPASSLPQSFLLKCLEQVRKIQGDGAALQEKLCATYKLCHPEELVLLGHSLGIPWAPLSSCPSQALQLAGCLSQLHSGLFLYQGLLQALEGISPELGPTLDTLQLDVADFATTIWQQMEELGMAPALQPTQGAMPAFASAFQRRAGGVLVASHLQSFLEVSYRVLRHLAQP
EC50 of the G-CSF dose response (PathHunter β-galactosidase complementation of CSF3R-PK and SHC1-EA in U2OS cells, Jak2 construct) [6]: 4 ng/mL | assay window of the G-CSF dose response (PathHunter β-galactosidase complementation of CSF3R-PK and SHC1-EA in U2OS cells, Jak2 construct) [6]: 7 fold
